Results: PMC7115751, “Identification and functional characterization of a β-glucosidase from Bacillus tequelensis BD69 expressed in bacterial and yeast heterologous systems” (PeerJ, 2020)

B1: Bteqβgluc (pPIC-Bteqβgluc) (Bacillus tequilensis) (protein)
chain: MTKGLKIVTIGGGSSYTPVLVEGFIKRYDELPVRELWLVDIPEGEEKLNIVGTLAKRMVEKAGVPIDIHLTPDRRKALKDADFVTTQFRVGLLQARAKDERIPLKYGVIGQETNGPGGLFKGLRTIPVILEIAKDIEELCPNAWLVNFTNPAGMVTEALLRYSNLKKVVGLCNVPIGIKMGVAKALDVDVDRVEVQFAGLNHMVFGLDVFLDGVSVKEQVIEAMGDPKNAMTMKNTSGAEWEPDFLKALNVIPCGYHRYYFKTKEMLEHELEASQTEGTRAEVVQKVEKELFELYKDPNLAIKPPQLEKRGGAYYSDAACNLISSIYNDKHDIQPVNTINNGAIASIPDDSAVEVNCVMTKTGPKPIAVGDLPVSVRGLVQQIKSFERVAAEAAVTGDYQTALLAMTTNPLVPSDAVAKQILDDMLEAHKAYLPQFFNKIEA
notes: full-length ORF (1,329 bp; 443 residues) in pPIC9K, secreted from Pichia pastoris GS115, purified by anion exchange; no His tag mentioned
B2: Bteqβgluc (pET-Bteqβgluc) (Bacillus tequilensis) (protein)
chain: B1 chain
notes: full-length ORF (1,329 bp; 443 residues) in pET-30a(+), His-tagged, E. coli BL21(DE3) pLysS

Substrate: O=[N+]([O-])c1ccc(O[C@@H]2O[C@H](CO)[C@@H](O)[C@H](O)[C@H]2O)cc1
Assay: purified protein
Format: biochemical, Bacillus tequilensis
Conditions: pH 5.0 acetate buffer, 50 °C, pNPG 2–20 mM, no metal or NAD cofactor mentioned

Protein	Km	kcat/Km
B1	7.43 mM	1020 M⁻¹ s⁻¹
B2	8.43 mM	887 M⁻¹ s⁻¹
